B1: FLAG-tagged human SIRT3 (C-terminal FLAG tag) (protein)
chain: MAFWGWRAAAALRLWGRVVERVEAGGGVGPFQACGCRLVLGGRDDVSAGLRGSHGARGEPLDPARPLQRPPRPEVPRAFRRQPRAAAPSFFFSSIKGGRRSISFSVGASSVVGSGGSSDKGKLSLQDVAELIRARACQRVVVMVGAGISTPSGIPDFRSPGSGLYSNLQQYDLPYPEAIFELPFFFHNPKPFFTLAKELYPGNYKPNVTHYFLRLLHDKGLLLRLYTQNIDGLERVSGIPASKLVEAHGTFASATCTVCQRPFPGEDIRADVMADRVPRCPVCTGVVKPDIVFFGEPLPQRFLLHVVDFPMADLLLILGTSLEVEPFASLTEAVRSSVPRLLINRDLVGPLAWHPRSRDVAQLGDVVHGVESLVELLGWTEEMRDLVQRETGKLDGPDK
B2: FLAG-tagged human SIRT1 (C-terminal FLAG tag) (protein)
chain: MADEAALALQPGGSPSAAGADREAASSPAGEPLRKRPRRDGPGLERSPGEPGGAAPEREVPAAARGCPGAAAAALWREAEAEAAAAGGEQEAQATAAAGEGDNGPGLQGPSREPPLADNLYDEDDDDEGEEEEEAAAAAIGYRDNLLFGDEIITNGFHSCESDEEDRASHASSSDWTPRPRIGPYTFVQQHLMIGTDPRTILKDLLPETIPPPELDDMTLWQIVINILSEPPKRKKRKDINTIEDAVKLLQECKKIIVLTGAGVSVSCGIPDFRSRDGIYARLAVDFPDLPDPQAMFDIEYFRKDPRPFFKFAKEIYPGQFQPSLCHKFIALSDKEGKLLRNYTQNIDTLEQVAGIQRIIQCHGSFATASCLICKYKVDCEAVRGDIFNQVVPRCPRCPADEPLAIMKPEIVFFGENLPEQFHRAMKYDKDEVDLLIVIGSSLKVRPVALIPSSIPHEVPQILINREPLPHLHFDVELLGDCDVIINELCHRLGGEYAKLCCNPVKLSEITEKPPRTQKELAYLSELPPTPLHVSEDSSSPERTSPPDSSVIVTLLDQAAKSNDDLDVSESKGCMEEKPQEVQTSRNVESIAEQMENPDLKNVGSSTGEKNERTSVAGTVRKCWPNRVAKEQISRRLDGNQYLFLPPNRYIFHGAEVYSDSEDDVLSSSSCGSNSDSGTCQSPSLEEPMEDESEIEEFYNGLEDEPDVPERAGGAGFGTDGDDQEAINEAISVKQEVTDMNYPSNKS
B3: FLAG-tagged human SIRT2 (C-terminal FLAG tag) (protein)
chain: MAEPDPSHPLETQAGKVQEAQDSDSDSEGGAAGGEADMDFLRNLFSQTLSLGSQKERLLDELTLEGVARYMQSERCRRVICLVGAGISTSAGIPDFRSPSTGLYDNLEKYHLPYPEAIFEISYFKKHPEPFFALAKELYPGQFKPTICHYFMRLLKDKGLLLRCYTQNIDTLERIAGLEQEDLVEAHGTFYTSHCVSASCRHEYPLSWMKEKIFSEVTPKCEDCQSLVKPDIVFFGESLPARFFSCMQSDFLKVDLLLVMGTSLQVQPFASLISKAPLSTPRLLINKEKAGQSDPFLGMIMGLGGGMDFDSKKAYRDVAWLGECDQGCLALAELLGWKKELEDLVRREHASIDAQSGAGVPNPSTSASPKKSPPPAKDEARTTEREKPQ

Target: synthetic Tat (72 amino acids) carrying an N-terminal biotin label and an acetyl group at position 50

Protein | in vitro Tat deacetylation (western blot with antibodies specific for acetylated lysine 50 in Tat)
B1 | resulted in deacetylation of Tat lysine 50
B2 | resulted in deacetylation of Tat lysine 50
B3 | resulted in deacetylation of Tat lysine 50

From patent US20050287597
